Key:
[1] = target: 8x-V3BaL Env (8x Env with the V3 loop of HIV-1/BaL; on cells or on luciferase reporter virions) (HIV-1 (IIIBx 8x/BaL chimera)); assay: cell-based or functional assay
[2] = target: IIIB-V3BaL Env (HXB Env with the V3 loop of HIV-1/BaL; on luciferase reporter virions) (HIV-1 (IIIB/BaL chimera)); assay: cell-based or functional assay

Work on “CD4-induced (CD4i) monoclonal antibody 17b” yielded a concentration of antibody required to neutralize 50% of input virus (luciferase reporter virus, GHOST-CCR5 cells) [1] of 2 ng/mL, a concentration of antibody required to neutralize 90% of input virus (luciferase reporter virus, GHOST-CCR5 cells) [1] of 15 ng/mL and a concentration of antibody required to neutralize 50% of input virus (luciferase reporter virus, GHOST-CCR5 cells) [2] of 14 ng/mL. For the same substance, the concentration of antibody required to neutralize 90% of input virus (luciferase reporter virus, GHOST-CCR5 cells) [2] was 90 ng/mL.

With “CD4-induced (CD4i) monoclonal antibody 48d” the concentration of antibody required to neutralize 50% of input virus (luciferase reporter virus, GHOST-CCR5 cells) [1] was 3 ng/mL, the concentration of antibody required to neutralize 90% of input virus (luciferase reporter virus, GHOST-CCR5 cells) [1] was greater than 200 ng/mL and the percent neutralization at 200 ng/ml (luciferase reporter virus, GHOST-CCR5 cells) [1] was 88%. It also gave a concentration of antibody required to neutralize 50% of input virus (luciferase reporter virus, GHOST-CCR5 cells) [2] greater than 5000 ng/mL and a concentration of antibody required to neutralize 90% of input virus (luciferase reporter virus, GHOST-CCR5 cells) [2] greater than 5000 ng/mL.

Source: US20050191621A1
